According to patent US20230406885A1, “CYCLIC PEPTIDES FOR TRAPPING INTERLEUKIN-1 BETA” (MERCK SHARP & DOHME LLC, priority 2022, published 2023):
*1 amine or outer side, *2 acyl side, *3 side chain or, on linkers, in order; H or OH if unused. [ ]: non-standard residue; d: D form. 3AzaPhe4AcPip = (S)-3-(6-(4-acetylpiperazin-1-yl)pyridin-3-yl)-2-aminopropanoic acid, CC(=O)N1CCN(c2ccc(C[C@H](N[*:1])C(=O)[*:2])cn2)CC1; Pro(trans-4-NH2) = O=C([C@@H]1C[C@@H](N[*:3])CN1[*:1])[*:2]; Trp(βS-Me,4-F) = C[C@@H](c1c[nH]c2cccc(F)c12)[C@H](N)C(=O)O; Bip(4'-COOH) = N[C@@H](Cc1ccc(-c2ccc(C(=O)O)cc2)cc1)C(=O)O; hQ = L-homoglutamine, NC(=O)CCC[C@H](N[*:1])C(=O)[*:2]; Phe(4-COOH) = N[C@@H](Cc1ccc(C(=O)O)cc1)C(=O)O; h3Pal(5-CN) = N#Cc1cncc(CC[C@H](N)C(=O)O)c1; Ala(4-THP) = N[C@@H](CC1CCOCC1)C(=O)O; hTyr = N[C@@H](CCc1ccc(O)cc1)C(=O)O; hLys = NCCCCC[C@H](N)C(=O)O; dDab = NCC[C@@H](N)C(=O)O; dNMeA = CN[C@H](C)C(=O)O; Nva = CCC[C@H](N)C(=O)O

B1: SEQ ID NO: 71 (peptide)
peptide: cyclo([Bip(4'-COOH)]W[Phe(4-COOH)]G[Pro(trans-4-NH2)][Trp(βS-Me,4-F)]D[dNMeA]G[Bip(4'-COOH)]K[Nva][dA][hTyr])
SMILES: CCC[C@@H]1NC(=O)[C@H](CCCCN)NC(=O)[C@H](Cc2ccc(-c3ccc(C(=O)O)cc3)cc2)NC(=O)CNC(=O)[C@@H](C)N(C)C(=O)[C@H](CC(=O)O)NC(=O)[C@H]([C@@H](C)c2c[nH]c3cccc(F)c23)NC(=O)[C@@H]2C[C@@H](N)CN2C(=O)CNC(=O)[C@H](Cc2ccc(C(=O)O)cc2)NC(=O)[C@H](Cc2c[nH]c3ccccc23)NC(=O)[C@H](Cc2ccc(-c3ccc(C(=O)O)cc3)cc2)NC(=O)[C@H](CCc2ccc(O)cc2)NC(=O)[C@@H](C)NC1=O
B2: SEQ ID NO: 72 (peptide)
peptide: cyclo([Bip(4'-COOH)]W[Phe(4-COOH)]G[Pro(trans-4-NH2)][Trp(βS-Me,4-F)]D[dNMeA]G[Bip(4'-COOH)]KS[dA][hTyr])
SMILES: C[C@@H]1C(=O)NCC(=O)N[C@@H](Cc2ccc(-c3ccc(C(=O)O)cc3)cc2)C(=O)N[C@@H](CCCCN)C(=O)N[C@@H](CO)C(=O)N[C@H](C)C(=O)N[C@@H](CCc2ccc(O)cc2)C(=O)N[C@@H](Cc2ccc(-c3ccc(C(=O)O)cc3)cc2)C(=O)N[C@@H](Cc2c[nH]c3ccccc23)C(=O)N[C@@H](Cc2ccc(C(=O)O)cc2)C(=O)NCC(=O)N2C[C@H](N)C[C@H]2C(=O)N[C@@H]([C@@H](C)c2c[nH]c3cccc(F)c23)C(=O)N[C@@H](CC(=O)O)C(=O)N1C
B3: SEQ ID NO: 66 (peptide)
peptide: cyclo([Bip(4'-COOH)]W[Phe(4-COOH)]G[Pro(trans-4-NH2)][Trp(βS-Me,4-F)]D[dNMeA]G[Bip(4'-COOH)]KL[dA][h3Pal(5-CN)])
SMILES: CC(C)C[C@@H]1NC(=O)[C@H](CCCCN)NC(=O)[C@H](Cc2ccc(-c3ccc(C(=O)O)cc3)cc2)NC(=O)CNC(=O)[C@@H](C)N(C)C(=O)[C@H](CC(=O)O)NC(=O)[C@H]([C@@H](C)c2c[nH]c3cccc(F)c23)NC(=O)[C@@H]2C[C@@H](N)CN2C(=O)CNC(=O)[C@H](Cc2ccc(C(=O)O)cc2)NC(=O)[C@H](Cc2c[nH]c3ccccc23)NC(=O)[C@H](Cc2ccc(-c3ccc(C(=O)O)cc3)cc2)NC(=O)[C@H](CCc2cncc(C#N)c2)NC(=O)[C@@H](C)NC1=O
B4: SEQ ID NO: 62 (peptide)
peptide: cyclo([Bip(4'-COOH)]W[Phe(4-COOH)]G[Pro(trans-4-NH2)][Trp(βS-Me,4-F)]D[dNMeA]G[Bip(4'-COOH)][hLys]L[dA][hTyr])
SMILES: CC(C)C[C@@H]1NC(=O)[C@H](CCCCCN)NC(=O)[C@H](Cc2ccc(-c3ccc(C(=O)O)cc3)cc2)NC(=O)CNC(=O)[C@@H](C)N(C)C(=O)[C@H](CC(=O)O)NC(=O)[C@H]([C@@H](C)c2c[nH]c3cccc(F)c23)NC(=O)[C@@H]2C[C@@H](N)CN2C(=O)CNC(=O)[C@H](Cc2ccc(C(=O)O)cc2)NC(=O)[C@H](Cc2c[nH]c3ccccc23)NC(=O)[C@H](Cc2ccc(-c3ccc(C(=O)O)cc3)cc2)NC(=O)[C@H](CCc2ccc(O)cc2)NC(=O)[C@@H](C)NC1=O
B5: SEQ ID NO: 67 (peptide)
peptide: cyclo([Bip(4'-COOH)]W[Phe(4-COOH)]G[Pro(trans-4-NH2)][Trp(βS-Me,4-F)]D[dNMeA]G[Bip(4'-COOH)]KL[dA][hTyr])
SMILES: CC(C)C[C@@H]1NC(=O)[C@H](CCCCN)NC(=O)[C@H](Cc2ccc(-c3ccc(C(=O)O)cc3)cc2)NC(=O)CNC(=O)[C@@H](C)N(C)C(=O)[C@H](CC(=O)O)NC(=O)[C@H]([C@@H](C)c2c[nH]c3cccc(F)c23)NC(=O)[C@@H]2C[C@@H](N)CN2C(=O)CNC(=O)[C@H](Cc2ccc(C(=O)O)cc2)NC(=O)[C@H](Cc2c[nH]c3ccccc23)NC(=O)[C@H](Cc2ccc(-c3ccc(C(=O)O)cc3)cc2)NC(=O)[C@H](CCc2ccc(O)cc2)NC(=O)[C@@H](C)NC1=O
B6: SEQ ID NO: 64 (peptide)
peptide: cyclo([Bip(4'-COOH)]W[Phe(4-COOH)]G[Pro(trans-4-NH2)][Trp(βS-Me,4-F)]D[dNMeA]G[Bip(4'-COOH)]K[Ala(4-THP)][dA][h3Pal(5-CN)])
SMILES: C[C@@H]1C(=O)NCC(=O)N[C@@H](Cc2ccc(-c3ccc(C(=O)O)cc3)cc2)C(=O)N[C@@H](CCCCN)C(=O)N[C@@H](CC2CCOCC2)C(=O)N[C@H](C)C(=O)N[C@@H](CCc2cncc(C#N)c2)C(=O)N[C@@H](Cc2ccc(-c3ccc(C(=O)O)cc3)cc2)C(=O)N[C@@H](Cc2c[nH]c3ccccc23)C(=O)N[C@@H](Cc2ccc(C(=O)O)cc2)C(=O)NCC(=O)N2C[C@H](N)C[C@H]2C(=O)N[C@@H]([C@@H](C)c2c[nH]c3cccc(F)c23)C(=O)N[C@@H](CC(=O)O)C(=O)N1C
B7: SEQ ID NO: 7 (peptide)
peptide: cyclo([3AzaPhe4AcPip]W[Phe(4-COOH)]G[Pro(trans-4-NH2)][Trp(βS-Me,4-F)]D[dNMeA]G[Bip(4'-COOH)]KL[dDab][hTyr])
SMILES: CC(=O)N1CCN(c2ccc(C[C@@H]3NC(=O)[C@H](CCc4ccc(O)cc4)NC(=O)[C@@H](CCN)NC(=O)[C@H](CC(C)C)NC(=O)[C@H](CCCCN)NC(=O)[C@H](Cc4ccc(-c5ccc(C(=O)O)cc5)cc4)NC(=O)CNC(=O)[C@@H](C)N(C)C(=O)[C@H](CC(=O)O)NC(=O)[C@H]([C@@H](C)c4c[nH]c5cccc(F)c45)NC(=O)[C@@H]4C[C@@H](N)CN4C(=O)CNC(=O)[C@H](Cc4ccc(C(=O)O)cc4)NC(=O)[C@H](Cc4c[nH]c5ccccc45)NC3=O)cn2)CC1
B8: SEQ ID NO: 68 (peptide)
peptide: cyclo([Bip(4'-COOH)]W[Phe(4-COOH)]G[Pro(trans-4-NH2)][Trp(βS-Me,4-F)]D[dNMeA]G[Bip(4'-COOH)]KL[dDab][hTyr])
SMILES: CC(C)C[C@@H]1NC(=O)[C@H](CCCCN)NC(=O)[C@H](Cc2ccc(-c3ccc(C(=O)O)cc3)cc2)NC(=O)CNC(=O)[C@@H](C)N(C)C(=O)[C@H](CC(=O)O)NC(=O)[C@H]([C@@H](C)c2c[nH]c3cccc(F)c23)NC(=O)[C@@H]2C[C@@H](N)CN2C(=O)CNC(=O)[C@H](Cc2ccc(C(=O)O)cc2)NC(=O)[C@H](Cc2c[nH]c3ccccc23)NC(=O)[C@H](Cc2ccc(-c3ccc(C(=O)O)cc3)cc2)NC(=O)[C@H](CCc2ccc(O)cc2)NC(=O)[C@@H](CCN)NC1=O
B9: SEQ ID NO: 69 (peptide)
peptide: cyclo([Bip(4'-COOH)]W[Phe(4-COOH)]G[Pro(trans-4-NH2)][Trp(βS-Me,4-F)]D[dNMeA]G[Bip(4'-COOH)]KL[dS][hTyr])
SMILES: CC(C)C[C@@H]1NC(=O)[C@H](CCCCN)NC(=O)[C@H](Cc2ccc(-c3ccc(C(=O)O)cc3)cc2)NC(=O)CNC(=O)[C@@H](C)N(C)C(=O)[C@H](CC(=O)O)NC(=O)[C@H]([C@@H](C)c2c[nH]c3cccc(F)c23)NC(=O)[C@@H]2C[C@@H](N)CN2C(=O)CNC(=O)[C@H](Cc2ccc(C(=O)O)cc2)NC(=O)[C@H](Cc2c[nH]c3ccccc23)NC(=O)[C@H](Cc2ccc(-c3ccc(C(=O)O)cc3)cc2)NC(=O)[C@H](CCc2ccc(O)cc2)NC(=O)[C@@H](CO)NC1=O
B10: SEQ ID NO: 65 (peptide)
peptide: cyclo([Bip(4'-COOH)]W[Phe(4-COOH)]G[Pro(trans-4-NH2)][Trp(βS-Me,4-F)]D[dNMeA]G[Bip(4'-COOH)]K[Ala(4-THP)][dA][hTyr])
SMILES: C[C@@H]1C(=O)NCC(=O)N[C@@H](Cc2ccc(-c3ccc(C(=O)O)cc3)cc2)C(=O)N[C@@H](CCCCN)C(=O)N[C@@H](CC2CCOCC2)C(=O)N[C@H](C)C(=O)N[C@@H](CCc2ccc(O)cc2)C(=O)N[C@@H](Cc2ccc(-c3ccc(C(=O)O)cc3)cc2)C(=O)N[C@@H](Cc2c[nH]c3ccccc23)C(=O)N[C@@H](Cc2ccc(C(=O)O)cc2)C(=O)NCC(=O)N2C[C@H](N)C[C@H]2C(=O)N[C@@H]([C@@H](C)c2c[nH]c3cccc(F)c23)C(=O)N[C@@H](CC(=O)O)C(=O)N1C
B11: SEQ ID NO: 70 (peptide)
peptide: cyclo([Bip(4'-COOH)]W[Phe(4-COOH)]G[Pro(trans-4-NH2)][Trp(βS-Me,4-F)]D[dNMeA]G[Bip(4'-COOH)]KLG[hTyr])
SMILES: CC(C)C[C@@H]1NC(=O)[C@H](CCCCN)NC(=O)[C@H](Cc2ccc(-c3ccc(C(=O)O)cc3)cc2)NC(=O)CNC(=O)[C@@H](C)N(C)C(=O)[C@H](CC(=O)O)NC(=O)[C@H]([C@@H](C)c2c[nH]c3cccc(F)c23)NC(=O)[C@@H]2C[C@@H](N)CN2C(=O)CNC(=O)[C@H](Cc2ccc(C(=O)O)cc2)NC(=O)[C@H](Cc2c[nH]c3ccccc23)NC(=O)[C@H](Cc2ccc(-c3ccc(C(=O)O)cc3)cc2)NC(=O)[C@H](CCc2ccc(O)cc2)NC(=O)CNC1=O
B12: SEQ ID NO: 63 (peptide)
peptide: cyclo([Bip(4'-COOH)]W[Phe(4-COOH)]G[Pro(trans-4-NH2)][Trp(βS-Me,4-F)]D[dNMeA]G[Bip(4'-COOH)][hQ]L[dA][hTyr])
SMILES: CC(C)C[C@@H]1NC(=O)[C@H](CCCC(N)=O)NC(=O)[C@H](Cc2ccc(-c3ccc(C(=O)O)cc3)cc2)NC(=O)CNC(=O)[C@@H](C)N(C)C(=O)[C@H](CC(=O)O)NC(=O)[C@H]([C@@H](C)c2c[nH]c3cccc(F)c23)NC(=O)[C@@H]2C[C@@H](N)CN2C(=O)CNC(=O)[C@H](Cc2ccc(C(=O)O)cc2)NC(=O)[C@H](Cc2c[nH]c3ccccc23)NC(=O)[C@H](Cc2ccc(-c3ccc(C(=O)O)cc3)cc2)NC(=O)[C@H](CCc2ccc(O)cc2)NC(=O)[C@@H](C)NC1=O

These binders were tested against Recombinant human IL-1β (BioLegend 579404) (human, UniProt P01584 117-269) (assay: cell-based or functional assay).

MRC5 IC50	Binder
0.0926 nM	B1
0.107 nM	B2
0.0299 nM	B3
0.283 nM	B4
0.046 nM	B5
0.0182 nM	B6
0.135 nM	B7
0.296 nM	B8
0.334 nM	B9
0.0158 nM	B10
0.0973 nM	B11
0.063 nM	B12
